In patent publication US11008403 (dated 2021) one finds Kd data, which are given here for ten molecules.

Assay [1] has as its target human TfR ECD (human). In words: SPR.
In assay [2] the target is human TfR ECD (human). In words: SPR. This is another data set of the same source.
Assay [3] concerns the target T1, cyno TfR ECD (cynomolgus).
T1 chain: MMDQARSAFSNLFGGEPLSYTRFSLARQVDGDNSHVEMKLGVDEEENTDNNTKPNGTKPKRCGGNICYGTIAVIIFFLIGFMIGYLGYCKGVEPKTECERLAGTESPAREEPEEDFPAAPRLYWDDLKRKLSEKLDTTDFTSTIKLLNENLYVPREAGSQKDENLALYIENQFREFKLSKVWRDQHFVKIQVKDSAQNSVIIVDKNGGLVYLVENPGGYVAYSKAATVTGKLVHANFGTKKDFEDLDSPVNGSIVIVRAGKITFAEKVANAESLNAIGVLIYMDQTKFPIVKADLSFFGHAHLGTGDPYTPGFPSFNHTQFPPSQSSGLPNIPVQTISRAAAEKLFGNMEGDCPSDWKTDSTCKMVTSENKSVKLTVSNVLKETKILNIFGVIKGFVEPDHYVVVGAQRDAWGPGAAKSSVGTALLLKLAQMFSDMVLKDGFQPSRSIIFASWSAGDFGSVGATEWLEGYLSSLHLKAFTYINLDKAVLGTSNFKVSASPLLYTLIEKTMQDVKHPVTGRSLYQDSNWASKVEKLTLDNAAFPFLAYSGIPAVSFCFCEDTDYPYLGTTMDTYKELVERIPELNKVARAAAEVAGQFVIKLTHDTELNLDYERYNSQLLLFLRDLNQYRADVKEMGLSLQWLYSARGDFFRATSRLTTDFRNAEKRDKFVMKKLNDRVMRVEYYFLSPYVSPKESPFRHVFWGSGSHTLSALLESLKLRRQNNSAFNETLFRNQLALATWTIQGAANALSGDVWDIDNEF
Description: SPR.

Assay [4] has as its target human TfR ECD (human). In words: SPR. The source holds these as a separate data set.
Assay [5] addresses T1, cyno TfR ECD. In words: SPR.
Assay [6] has as its target T1, cyno TfR ECD. Description: SPR. In general terms: SPR reads the build-up and loss of mass on a sensor chip optically.
The target of assay [7] is human TfR ECD (human). In words: SPR. The source holds these as a separate data set.
The target in assay [8] is T1, cyno TfR ECD. Description: SPR.
Assay [9] has as its target human TfR ECD (human). In words: SPR. This is another data set of the same source.
Another assay concerns the target human FcRn (human, UniProt P55899). In words: SPR, pH 6.0.
In the next assay the target is T2, cyno FcRn (cynomolgus, UniProt Q8SPV9).
T2 chain 1: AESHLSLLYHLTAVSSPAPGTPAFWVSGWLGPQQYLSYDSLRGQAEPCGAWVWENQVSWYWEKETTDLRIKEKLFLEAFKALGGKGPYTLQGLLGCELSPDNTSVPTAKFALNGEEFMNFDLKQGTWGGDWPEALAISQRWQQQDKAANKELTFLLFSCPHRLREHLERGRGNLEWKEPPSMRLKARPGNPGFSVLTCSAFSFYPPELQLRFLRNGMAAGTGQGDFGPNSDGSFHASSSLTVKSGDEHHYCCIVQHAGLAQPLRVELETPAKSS
T2 chain 2: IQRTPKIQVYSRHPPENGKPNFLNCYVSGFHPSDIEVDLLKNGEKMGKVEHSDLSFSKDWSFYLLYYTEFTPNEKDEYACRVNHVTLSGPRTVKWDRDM
In words: SPR, pH 6.0.

Residue numbers refer to the chain shown, from its start. Names may count otherwise. “And” between values parts separate entries of the source, which are not always exact repeats. Equal entries are not always repeated. Where two headings read alike, the source gives them in different places.

By Kd is commonly meant the free concentration of one partner at which half of the binding sites on the other are occupied at equilibrium, for simple one-to-one binding. Read a low Kd as a tighter complex.

B1: Hu15G11.HC52A Fab (antiTfR.52A.Fab) (antibody, V domains shown)
VH: EVQLVQSGAEVKKPGASVKVSCKASGYTFTSYWMHWVRQAPGQRLEWIGEIAPTNGRTNYIEKFKSRATLTVDKSASTAYMELSSLRSEDTAVYYCARGTRAYHYWGQGTMVTVSS
VL: DIQMTQSPSSLSASVGDRVTITCRASDNLYSNLAWYQQKPGKSPKLLVYDATNLADGVPSRFSGSGSGTDYTLTISSLQPEDFATYYCQHFWGTPLTFGQGTKVEIK
Regarding B1, the dissociation constant (Kd) is 55 nM with human TfR ECD [1]; 34.6 nM and 44.4 nM with human TfR ECD [2]; 117 nM in the assay with cyno TfR ECD [3].

B2: Hu15G11.v5 Fab (antibody, V domains shown)
VH: B1 VH with A52N
VL: B1 VL
In the case of B2, the Kd with human TfR ECD [2] is 7.03 nM; in the assay with human TfR ECD [4], 4.7 nM and 8.91 nM; with cyno TfR ECD [5], 28.2 nM; in the assay with cyno TfR ECD [6], 15.6 nM; with cyno TfR ECD [3] it was 28.2 nM; with human TfR ECD [7], 7.03 nM.

B3: Hu15G11.W92A bispecific, TfR arm (antibody, V domains shown)
VH: B1 VH with A52N
VL: B1 VL with W92A
As to B3, the dissociation constant (Kd) with cyno TfR ECD [5] amounted to 622 nM; in the assay with human TfR ECD [7] it was 295 nM.

B4: Anti-TfR2/6266.hIgG1.LALAPG.YTE, TfR arm (antibody, V domains shown)
VH: B1 VH with A52N
VL: DIQMTQSPSSLSASVGDRVTITCRASDNLYSNLAWYQQKPGKSPKLLVYDATNLADGVPSRFSGSGSGTDYTLTISSLQPEDFATYYCQHFAGTPLTFGQGTKVEIKR
In the assay with cyno TfR ECD [8], B4 had a Kd of 1650 nM.

B5: antiTfR.52A.M108L.Fab (antibody, V domains shown)
VH: B1 VH with M111L
VL: B1 VL
In turn, B5 showed an equilibrium dissociation constant (Kd) in the assay with human TfR ECD [1] of 72.2 nM.

B6: Anti-TfR1/6266.hIgG1.N297G, TfR arm (antibody, V domains shown)
VH: B1 VH with A52N
VL: B1 VL
As to B6, the dissociation constant Kd with cyno TfR ECD [8] was found to be 23.7 nM; with human TfR ECD [9] it was 9 nM.

B7: Anti-TfR2/6266.hIgG1.LALAPG.YTE (antibody)
chain 1: EVQLVQSGAEVKKPGASVKVSCKASGYTFTSYWMHWVRQAPGQRLEWIGEINPTNGRTNYIEKFKSRATLTVDKSASTAYMELSSLRSEDTAVYYCARGTRAYHYWGQGTMVTVSSASTKGPSVFPLAPSSKSTSGGTAALGCLVKDYFPEPVTVSWNSGALTSGVHTFPAVLQSSGLYSLSSVVTVPSSSLGTQTYICNVNHKPSNTKVDKKVEPKSCDKTHTCPPCPAPEAAGGPSVFLFPPKPKDTLYITREPEVTCVVVDVSHEDPEVKFNWYVDGVEVHNAKTKPREEQYNSTYRVVSVLTVLHQDWLNGKEYKCKVSNKALGAPIEKTISKAKGQPREPQVYTLPPSREEMTKNQVSLSCAVKGFYPSDIAVEWESNGQPENNYKTTPPVLDSDGSFFLVSKLTVDKSRWQQGNVFSCSVMHEALHNHYTQKSLSLSPGK
chain 2: DIQMTQSPSSLSASVGDRVTITCRASDNLYSNLAWYQQKPGKSPKLLVYDATNLADGVPSRFSGSGSGTDYTLTISSLQPEDFATYYCQHFAGTPLTFGQGTKVEIKRTVAAPSVFIFPPSDEQLKSGTASVVCLLNNFYPREAKVQWKVDNALQSGNSQESVTEQDSKDSTYSLSSTLTLSKADYEKHKVYACEVTHQGLSSPVTKSFNRGEC
chain 3: not shown
chain 4: not shown
With B7, the Kd was 300 nM in the assay with human FcRn and 200 nM in the assay with cyno FcRn.

B8: Anti-TfR.52A/6266.hIgG1.LALAPG (antibody)
chain 1: B7 chain 1 with N52A, Y251M, T253S, E255T
chain 2: B7 chain 2 with A92W
chain 3: not shown
chain 4: not shown
For the molecule B8, the dissociation constant (Kd) turned out to be 800 nM with human FcRn and 1200 nM with cyno FcRn.

B9: Anti-TfR.52A/6266.hIgG1.LALAPG.YTE (antibody)
chain 1: B7 chain 1 with N52A
chain 2: B7 chain 2 with A92W
chain 3: not shown
chain 4: not shown
Take B9: the Kd with human FcRn and in the assay with cyno FcRn was 200 nM throughout.

B10: Anti-TfR2/6266.hIgG1.LALAPG (antibody)
chain 1: B7 chain 1 with Y251M, T253S, E255T
chain 2: B7 chain 2
chain 3: not shown
chain 4: not shown
Turning to B10, the Kd is 1100 nM with human FcRn and 1200 nM with cyno FcRn.
